The test system of one data set is LCL3 cells. As to the kind of experiment: Cellular uptake by ICP-MS, LCL3. Type of data set: cell-based. As to the method: Subsequently, the quantitative distribution and uptake efficiency of nanoprobes in vitro in C666, HK1, HK1-LMP1 and LCL3 cells lines were monitored and investigated by evaluating the lanthanide content originating from the nanoprobes using inductively coupled plasma mass spectrometry (ICP-MS).
After co-incubation, the cell culture medium containing the nanoprobes was removed, and the exposed cells were further rinsed with 1 mL PBS three times. After that, the cells were trypsinized and re-dispersed in 1 mL cell medium. The cells were collected by centrifugation at 1500 rpm, and the cell pellet was digested in 100 μL concentrated HNO3 (69%) at room temperature for 3 h. Then, each cell pellet in centrifuge tube was filled up to 10 mL with 1% HNO3. The cellular uptake of all the nanoprobes was recorded via an Agilent 7500 series ICP-MS instrument. All ICP experiments were performed three times, and the values of Gd concentration (ppm) obtained were calculated and averaged.

Data set [1] has as its system EBV- and LMP1-negative HK1 cells. As to the kind of experiment: MTT cytotoxicity assay, HK1 cells. Type of data set: cell-based. Details: unit not given here. Conditions: 24 h incubation.
Another data set has as its system p65. The experiment in a line: Western blot of p65 (NF-κB) in LCL3 cells. Type of data set: cell-based. An excerpt: NF-κB signaling pathway is critical for the survival of EBV-infected tumor cells. Here we investigated if our nanoprobes could affect this oncogenic pathway. EBV-positive LCL3 and C666 cells were used as models, EBV-negative HK1 cells were used as control and Western blot was used to analyze the protein expression of p65, a major transcription factor in the NF-κB family. […] GAPDH and Histone are regarded as internal standards in cytosolic and nuclear fractions, respectively. […] This is consistent with the cellular uptake results.
Western blotting: EBV-positive C666, LCL3 and EBV-negative HK1 cell pellets were treated with phosphatase and protease inhibitors at 0-4° C. for 30 min. The total protein concentrations were calculated by protein absorbance. The protein was resolved by sodium dodecyl sulfate-polyacrylamide gel electrophoresis (SDS-PAGE) and transferred to cellulose filter membranes. The membranes were blocked with 3% BSA in Tris-buffered saline in 0.1% Tween 20 (TBST) for 1 h with gentle shaking and subsequently incubated with primary antibodies (1:1000) in 3% BSA in TBST at 4° C. for overnight. After rinsing with TBST buffer three times, the blots were then incubated with corresponding secondary anti-rabbit antibody (1:6000) for 1 h. After that, the blots were rinsed again with 3% BSA in TBST for 1 h shaking at room temperature. Lastly, the density of bands was determined by image analysis system after washing with TBST buffer three times.

Data set [2] addresses EBNA1 (DNA-binding domain fragment of a.a.468-607) (Epstein-Barr virus, UniProt P03211). The experiment in a line: EBNA1 dimerization/oligomerization inhibition assay. The format is biochemical. Conditions: 0.3 mg/mL nanoprobe, 90 mg EBNA1, DSS crosslinking, SDS gel. As to the method:
EBNA1 dimerization/oligomerization inhibition assays were performed to reveal the ability of interrupting EBNA1 dimerization/oligomerization in the presence of the previous nanoprobe UCNP-P4 and the nanoplatforms in situ.
(conc.: 0.3 mg/mL) at 4° C. overnight. Then, 2 mM disuccinimidyl suberate (DSS) was added to allow the samples to undergo crosslinking reaction at room temperature for 30 min. The samples were run and separated on an SDS-denaturing gel and proteins were detected using Coomassie Blue staining. PBS buffer was used as control group.

Data set [3] can be described thus: Peptide release from nanoprobes under various pH buffers (UV-vis absorbance). Particulars: 24 h in buffer, 0.5 mg/mL. The format is physicochemical. An excerpt:
The stability and capability of cleavage of the pH linker were also studied. […] More importantly, TEM images of UCNP-P5 at different pH buffers were observed and investigated in FIG. 1, providing direct evidence on pH-responsive peptide release from UCNP. […]

A further data set deals with HeLa derived xenograft. Conditions: 12.5 mg/kg i.v.; 3-36 h after injection; 980 nm. As to the method:
(§1) In vivo upconversion luminescence imaging was performed using UCNP-P5 under 980 nm excitation (laser power: 3 W). C666-tumor-bearing and HeLa-tumor-bearing nude mice were injected with UCNP-P5 through the tail vein.
(§2) In vivo upconversion luminescence imaging: C666 and HeLa cells (10^6 cells) were inoculated subcutaneously in BALB/c female nude mice (6 weeks). When the tumors reached 0.2-0.3 cm in diameter, the C666-tumor-bearing and HeLa-tumor-bearing mice were anesthetized and injected intravenously with UCNP-P5 (150 μl, 12.5 mg/kg per mouse). The in vivo upconversion luminescence images were recorded at different time points (3 h, 6 h, 12 h, 24 h, 36 h).

Another data set concerns C666-tumor. Conditions: 12.5 mg/kg i.v.; 3-36 h after injection; 980 nm. As to the method: as §1, §2
For another data set, the system named is LMP1-positive LCL3 cells. As to the kind of experiment: MTT cytotoxicity assay, LCL3 cells. The format is cell-based. Conditions: 24 h incubation. As to the method: The inhibitory effects of the novel nanoprobes on both EBV-infected cancer cells and non-EBV-infected cancer cells were investigated by MTT assays to test the cell viability. The cytotoxic assays were performed in EBV-positive C666 and NPC43 cells, LMP1-positive LCL3 and Raji cells, and the LMP1-positive and -negative HK1 cell pair. HK1, MRC-5 and HeLa cell lines are EBV-negative and they serve as negative controls. […] In addition, UCNP-P4, EBNA1-specific peptide coated UCNPs was included as control group, so the ability of inhibiting EBV-related cancer cells can be directly compared with UCNP-Pn [n=5, 6 and 7 (SEQ ID NO: 5, 6, 7)].
In vitro cytotoxic assays: The cytotoxicity of our nanoprobes was determined by MTT reduction assay. The cells (3×10^3 per well) were seeded onto 96-well plates and incubated overnight, followed by treatment with Pn [n=5, 6 and 7 (SEQ ID NO: 5, 6, 7)], UCNP, UCNP-Pn [n=5, 6 and 7 (SEQ ID NO: 5, 6, 7)] and UCNP-P4 individually at 37° C., 5% CO2 for 24 h in dark. The cell monolayers were rinsed with PBS and 50 μL of MTT, 3-(4,5-dimethylthiazol-2-yl)-2,5-diphenyltetrazolium bromide solution (0.5 mg mL^−1) was added per well and the cells were further incubated for 3 h at 37° C. […] The absorptions of the formazan crystal solutions at 540 nm and 690 nm were measured using a dual-wavelength Labsystem Multiskan microplate reader (Merck Eurolab).
On the technique in general: Formazan colour is commonly taken as a measure of viable cells.

Where no end group is shown, it is not given here. [ ]: non-standard residue; d: D form. Ahx = NCCCCCC(=O)O

Sequence of EBNA1 (DNA-binding domain fragment of a.a.468-607) (P03211 468-607): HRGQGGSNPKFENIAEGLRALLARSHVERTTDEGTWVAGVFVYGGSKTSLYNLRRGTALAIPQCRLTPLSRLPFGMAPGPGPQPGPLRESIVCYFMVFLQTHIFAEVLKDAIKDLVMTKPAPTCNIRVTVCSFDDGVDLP

“UCNP-P5: UCNP is NaGdF4:Yb^3+, Er^3+@NaGdF4 and plurality of polypeptides is Ahx-YFMVFGGRrRKGGFWLY (SEQ ID NO: 5), pH-sensitive imine linker ([Ahx]YFMVFGGR[dR]RKGGFWLY; also: conjugated to UCNP NaGdF4:Yb3+,Er3+@NaGdF4 via pH-sensitive imine linker)”: the “Cellular uptake (Gd amount by ICP-MS)” value in the data set with LCL3 cells (50 μg/mL) is on record as “largest amount of cellular uptake”. Also, the “Gd amount relative to UCNP-P4” value in the data set on LCL3 cells (24 h incubation) is “over twice”. Besides, the “IC50 in HK1” value in data set [1] worked out at 1027. For the same substance, the “Decreased p65 expression, nuclear fraction” value in the data set on p65 was 86%. For the same substance, in data set [2], the “Inhibition of EBNA1 dimerization/oligomerization” value was “eradicate all 90 mg EBNA1 dimers and oligomers”. Also, the Peptide release rate in data set [3] (pH 5.0) amounted to 84.6%; in data set [3] (pH 5.5), 56.1%; in data set [3] (pH 6.0), 34.8%; in data set [3] (pH 6.5), 20.9%; in data set [3] (pH 7.0), 6.1%; in data set [3] (pH 7.4), 0%. Besides, the entries for the “Upconversion luminescence signal from the tumor site” value with HeLa derived xenograft and with C666-tumor were “only observed at 3 h after the injection” and “persisted even 24 h after the injection”, respectively. The “IC50 in LCL3” value in the data set with LMP1-positive LCL3 cells is on record as 19 mg/mL.

(Values after patent US11938195B2, “Upconversion nanoparticle peptide conjugates” (BP InnoMed Limited, priority 2021, dated 2024).)
